Source: US20190359693A1

Experiments:
[1] = molecular target: recombinant HA of H3N2 A/HK/1/68-MA (influenza A virus); assay: biolayer interferometry (Octet), steady-state fit, geometric mean, pH 7.4
[2] = molecular target: recombinant HA of H7N9 A/Hangzhou/1/2013 (influenza A virus); assay: as above
[3] = molecular target: recombinant HA of H7N3 A/NIBRG/60 (A/mallard/NL/12/00) (influenza A virus); assay: as above
[4] = molecular target: recombinant HA of H3N2 A/Wisconsin/67/05 (influenza A virus); assay: as above
[5] = molecular target: recombinant HA of H1N1 A/Brisbane/59/07 (influenza A virus); assay: as above
[6] = molecular target: recombinant HA of B/Brisbane/60/08 (Victoria) (influenza B virus); assay: as above
[7] = molecular target: hemagglutinin (HA) of influenza virus H5N1 A/Vietnam/1194/04 (influenza A virus); assay: cell-based or functional assay
[8] = molecular target: hemagglutinin (HA) of influenza virus B/Florida/04/06 (Yamagata) (influenza B virus); assay: cell-based or functional assay
[9] = molecular target: hemagglutinin (HA) of influenza virus H1N1 A/Mississippi/03/01 274H (influenza A virus); assay: cell-based or functional assay
[10] = molecular target: hemagglutinin (HA) of influenza virus H6N1 A/Eurasian Wigeon/MPG1884/09 (influenza A virus); assay: cell-based or functional assay
[11] = molecular target: hemagglutinin (HA) of influenza virus H3N2 A/HK/1/68-MA (influenza A virus); assay: cell-based or functional assay
[12] = molecular target: hemagglutinin (HA) of influenza virus H5N2 A/Eurasian Wigeon/MPF461/07 (influenza A virus); assay: cell-based or functional assay
[13] = molecular target: hemagglutinin (HA) of influenza virus H5N2 A/Eurasian Wigeon/HK/MPF333/07 (influenza A virus); assay: cell-based or functional assay
[14] = molecular target: hemagglutinin (HA) of influenza virus H2N2 A/AnnArbor/23/57 (influenza A virus); assay: cell-based or functional assay
[15] = molecular target: hemagglutinin (HA) of influenza virus H10N3 A/Common Teal/MPH11/08 (influenza A virus); assay: cell-based or functional assay
[16] = molecular target: hemagglutinin (HA) of influenza virus H3N2 A/Wisconsin/67/05 (influenza A virus); assay: cell-based or functional assay
[17] = molecular target: hemagglutinin (HA) of influenza virus H7N9 A/Shanghai/2/13 (influenza A virus); assay: cell-based or functional assay
[18] = molecular target: hemagglutinin (HA) of influenza virus H4N6 A/Great Cormorant/MPB1683/06 (influenza A virus); assay: cell-based or functional assay
[19] = molecular target: hemagglutinin (HA) of influenza virus H1N2 A/Env/HK/MPU3156/05 (influenza A virus); assay: cell-based or functional assay
[20] = molecular target: hemagglutinin (HA) of influenza virus H2N2 A/Env/HK/MPU3156/05 (influenza A virus); assay: cell-based or functional assay
[21] = molecular target: hemagglutinin (HA) of influenza virus B/Brisbane/60/08 (Victoria) (influenza B virus); assay: cell-based or functional assay
[22] = molecular target: hemagglutinin (HA) of influenza virus H9N2 A/Ck/HK/SSP176/09 (influenza A virus); assay: cell-based or functional assay
[23] = molecular target: hemagglutinin (HA) of influenza virus B/Malaysia/2506/04 (Victoria) (influenza B virus); assay: cell-based or functional assay

B1: MD2407 (bispecific antibody)
chain: EVQLVESGGGLVQPGGSLRLSCAVSISIFDIYAMDWYRQAPGKQRDLVATSFRDGSTNYADSVKGRFTISRDNAKNTLYLQMNSLKPEDTAVYLCHVSLYRDPLGVAGGMGVYWGKGALVTVSSGGGGSGGGGSEVQLVESGGGLVQAGGSLKLSCAASGRTYAMGWFRQAPGKEREFVAHINALGTRTYYSDSVKGRFTISRDNAKNTEYLEMNNLKPEDTAVYYCTAQGQWRAAPVAVAAEYEFWGQGTQVTVSSGGGGSGGGGSEVQLVESGGGLVQPGGSLRLSCAATGFTLENKAIGWFRQTPGSEREGVLCISKSGSWTYYTDSMRGRFTISRDNAENTVYLQMDSLKPEDTAVYYCATTTAGGGLCWDGTTFSRLASSWGQGTQVTVSSGGGGSGGGGSEVQLVESGGGLVQPGGSLKLSCAASGFTFSTSWMYWLRQAPGKGLEWVSVINTDGGTYYADSVKDRFTISRDNAKDTLYLQMSSLKSEDTAVYYCAKDWGGPEPTRGQGTQVTVSS
With B1 the Kd [1] was 2.2 nM, the Kd [2] was 1.7 nM and the Kd [3] was 1.2 nM. For the same binder, the Kd [4] was 0.5 nM, the Kd [5] was 2.8 nM and the Kd [6] was 3.1 nM. It also gave an average neutralization titer [7] of 9.2 nM, an average neutralization titer [8] of 7.6 nM and an average neutralization titer [9] of 4.8 nM. For the same binder, the average neutralization titer [10] was 20.6 nM, the average neutralization titer [11] was 25.9 nM and the average neutralization titer [12] was 16.6 nM. It also gave an average neutralization titer [13] of 26 nM, an average neutralization titer [14] of 101 nM and an average neutralization titer [15] of 19.3 nM. The average neutralization titer [16] was 19.1 nM, the average neutralization titer [17] was 54.2 nM and the average neutralization titer [18] was 4.8 nM. It also gave an average neutralization titer [19] of 25.6 nM, an average neutralization titer [20] of 19.2 nM and an average neutralization titer [21] of 4.1 nM. The average neutralization titer [22] was 23 nM and the average neutralization titer [23] was 9.2 nM.
